This is an account of results in patent US20200332015A1 (NAMAB THERAPEUTICS, published 2020).

“And” between values parts separate entries of the source, which are not always exact repeats. Equal values may be shown once. Read-outs that look alike come from different tables or passages of the source. Where only a bound is given, the exact number is not on record here.

Test [1] concerns the target T1, mouse Fc-tagged mouse CD137 (R&D Systems, cat. 937-4B-050) (mouse, UniProt P20334 24-187).
T1 construct: also called mouse CD137-Fc chimeric protein
T1 sequence (looked up): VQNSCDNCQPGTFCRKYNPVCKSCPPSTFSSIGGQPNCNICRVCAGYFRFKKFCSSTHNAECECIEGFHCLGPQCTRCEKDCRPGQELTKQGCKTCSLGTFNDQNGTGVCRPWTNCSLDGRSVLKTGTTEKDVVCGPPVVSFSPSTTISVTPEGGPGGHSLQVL
Briefly: SPR T200, antigen-Fc captured, molecule as analyte. In a few lines: (§1)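 Biacore T200: anti-Fc antibody amine-coupled on CM5 chip captures chimeras of different species. Molecules injected as three-fold dilutions (0.12-90 nM) for 3 min, dissociation 10 min, 3 M MgCl₂ regeneration. Apparent ka, kd and KD from 1:1 Langmuir fit.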

The target of test [2] is T2, cynomolgus monkey Fc-tagged CD137 (R&D Systems, cat. 9324-4B-100) (cynomolgus monkey, UniProt A9YYE7 24-186).
T2 construct: also called cynomolgus CD137-Fc chimeric protein
Briefly: SPR T200, antigen-Fc captured, molecule as analyte. In a few lines:
as §1

The target in test [3] is T3, Fc tagged human CD137 (R&D Systems, cat. 838-4B-100) (human, UniProt Q07011 24-186).
T3 construct: also called CD137 Fc chimera; human CD137-Fc chimeric protein
Briefly: SPR T200, antigen-Fc captured, molecule as analyte. In a few lines:
as §1

For test [4], the target named is human PDL1-Fc chimeric protein (human, UniProt Q9NZQ7 19-238, limits assumed). Briefly: SPR T200, antigen-Fc captured, molecule as analyte. The gist of the method:
as §1

The target of test [5] is T4, human CD137 expressed on Jurkat cells (human, UniProt Q07011 24-255). Briefly: cell-based or functional assay.
The target in test [6] is T4, human CD137 expressed on Jurkat cells. Briefly: cell-based or functional assay. This is another data set of the same source.
Test [7] shares this target. Briefly: cell-based or functional assay. This is another data set of the same source.
The target is the same in test [8]. Briefly: cell-based or functional assay. This is another data set of the same source.
Test [9] has the same target. Briefly: cell-based or functional assay. This is another data set of the same source.
The target is the same in test [10]. Briefly: cell-based or functional assay. The source holds these as a separate data set.
The target is the same in test [11]. Briefly: cell-based or functional assay. This is another data set of the same source.
Test [12] has the same target. Briefly: cell-based or functional assay. The source holds these as a separate data set.
For test [13] the target is unchanged. Briefly: cell-based or functional assay. This is another data set of the same source.
The target is the same in test [14]. Briefly: cell-based or functional assay. This is another data set of the same source.
For test [15], the target named is T3, Fc tagged human CD137 (R&D Systems, …). Briefly: SPR T200, antigen-Fc captured, molecule as analyte. This is another data set of the same source.
Test [16] concerns the target cynomolgus PDL1-Fc chimeric protein (cynomolgus, UniProt G7PSE7 19-238). Briefly: SPR T200, antigen-Fc captured, molecule as analyte. The gist of the method:
as §1

Test [17] addresses human PDL1 on cells (antigen-presenting cells and T cells of SEA stimulated human PBMC) (human, UniProt Q9NZQ7 19-290). Briefly: cell-based or functional assay.

T2 sequence (A9YYE7 entry or part of it): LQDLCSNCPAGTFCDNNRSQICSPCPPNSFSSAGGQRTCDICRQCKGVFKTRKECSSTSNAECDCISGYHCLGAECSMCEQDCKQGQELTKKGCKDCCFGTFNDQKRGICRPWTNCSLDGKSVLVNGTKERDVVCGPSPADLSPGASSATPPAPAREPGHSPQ
Chain of cynomolgus PDL1-Fc chimeric protein (G7PSE7 entry or part of it mutant): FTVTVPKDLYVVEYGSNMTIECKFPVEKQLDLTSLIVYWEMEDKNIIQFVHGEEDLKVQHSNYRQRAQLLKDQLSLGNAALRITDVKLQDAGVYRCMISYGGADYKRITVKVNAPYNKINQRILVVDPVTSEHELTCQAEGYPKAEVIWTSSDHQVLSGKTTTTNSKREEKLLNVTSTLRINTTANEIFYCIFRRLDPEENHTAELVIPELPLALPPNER

B1: PRO885 (38-02-A04 sc01 scDb-i/33-03-G02 sc01 scDb-o) (bispecific antibody)
chain: DIQMTQSPSSLSASVGDRVTITCQASQSINDYLAWYQQKPGKAPKLLIYKASTLASGVPSRFSGSGSGTDFTLTISSLQPEDFATYYCQQGYIITDIDNVFGTGTKVTVLGGGGGSQVQLQESGPGLVKPSETLSLTCKVSGFSFSNSYWICWIRQPPGKGLEWIGCTFVGSSDSTYYANWAKGRVTISVDSSKNQFSLKLSSVTAADTAVYYCARHPSDAVYGYANNLWGQGTLVTVSSGGGGSGGGGSGGGGSGGGGSIQMTQSPSSLSASVGDRVTITCQASQSINNVLAWYQQKPGKAPKLLIYRASTLASGVPSRFSGSGSGTDFTLTISSLQPEDFATYYCQSSYGNYGDFGTGTKVTVLGGGGGSQVQLQESGPGLVKPSETLSLTCKVSGFSFSSGYDMCWIRQPPGKGLEWIGCVVAGSVDITYYASWAKGRVTISVDSSKNQFSLKLSSVTAADTAVYYCARKDAYSDAFNLWGQGTLVTVSS
notes: scDb, PDL1 x CD137; also called anti-PDL1xCD137 scDb
On to B1, for which, in test [1], the Kd was determined as 600 nM, the koff is 0.18 s⁻¹ and the on-rate constant (kon) was determined as 290000 M⁻¹ s⁻¹. In test [2], this molecule displayed a Kd of 2.1 nM, a koff of 0.0007 s⁻¹ and a kon of 340000 M⁻¹ s⁻¹. Besides, in [3], the Kd amounted to 3.2 nM, the off-rate constant (koff) turned out to be 0.00076 s⁻¹ and the on-rate (kon) is 240000 M⁻¹ s⁻¹. Moreover, in [4], the Kd is 0.065 nM, the koff was found to be 0.00014 s⁻¹ and the kon turned out to be 2.1e+06 M⁻¹ s⁻¹. Further, the “EC50 NFkB-luciferase, CHO-PDL1 cells” value in test [5] was 0.0063 µg/mL and 0.00513 µg/mL and 0.00486 µg/mL. Moreover, in [6], the “EC50 NFkB-luciferase, HCC827 with IFNy stimulation” value was 0.00751 µg/mL and the “EC50 NFkB-luciferase, HCC827 without IFNy stimulation” value amounted to 0.00952 µg/mL. Further, in [7], the “EC50 NFkB-luciferase, CHO-PDL1 cells, 6 h” value was 0.00784 µg/mL; the “EC50 NFkB-luciferase, CHO-PDL1 cells, 6 h, + HSA” value was 0.00792 µg/mL; the “Top of curve fit, NFkB-luciferase, CHO-PDL1 cells, 6 h, + HSA” value is 493. For the same molecule, in [8], the “EC50 NFkB-luciferase, CHO-PDL1 cells, 24 h” value was found to be 0.0138 µg/mL; the “EC50 NFkB-luciferase, CHO-PDL1 cells, 24 h, + HBA (so in the source)” value worked out at 0.0149 µg/mL; the “Top of curve fit, NFkB-luciferase, CHO-PDL1 cells, 24 h, + HBA (so in the source)” value came to 258. Also, in [9], the “EC50 of IL-2 secretion, SEA stimulated PBMC, 96 h” value came out at 0.0399 µg/mL. Also, in [10], the “EC50 of IL-2 secretion, PBMC + CHO-PDL1 50,000 cells/well, anti-CD3 1 ug/ml” value was 0.0129 µg/mL; the “EC50 of IL-2 secretion, PBMC + CHO-PDL1 50,000 cells/well, anti-CD3 2 ug/ml” value is 0.052 µg/mL; the “EC50 of IL-2 secretion, PBMC + CHO-PDL1 100,000 cells/well, anti-CD3 1 ug/ml” value is 0.0862 µg/mL; the “EC50 of IL-2 secretion, PBMC + CHO-PDL1 100,000 cells/well, anti-CD3 2 ug/ml” value was found to be 0.0419 µg/mL. Further, in test [10], the “EC50 of IL-2 secretion, PBMC + CHO-PDL1 200,000 cells/well, anti-CD3 1 ug/ml” value is 0.0806 µg/mL and the “EC50 of IL-2 secretion, PBMC + CHO-PDL1 200,000 cells/well, anti-CD3 2 ug/ml” value amounted to 0.0301 µg/mL. Further, in test [11], the “max. activation, HCC827 +IFNg” value amounted to 134%; the “max. activation, HCC827 -IFNg” value was 111%; the “max. activation, NF-kB reporter gene, CHO-PD-L1” value turned out to be 499%; the “rel. IC50 (urelumab/test), HCC827 +IFNg” value worked out at 16.3 ratio. Also, in test [11], the “rel. IC50 (urelumab/test), HCC827 -IFNg” value was 8.42 ratio and the “rel. IC50 (urelumab/test), NF-kB reporter gene, CHO-PD-L1” value worked out at 6.75 ratio. Moreover, in test [12], the “EC50 NFkB-luciferase, HCC827 with IFNy” value was 0.00927 µg/mL and 0.00888 µg/mL and 0.00923 µg/mL. Besides, the “EC50 NFkB-luciferase, CHO-PDL1 cells” value in [13] stood at 0.0117 µg/mL. The “EC50 NFkB-luciferase, HCC827 without IFNy” value in [14] was 0.0115 µg/mL and 0.0131 µg/mL and 0.013 µg/mL.

B2: PRO1124 (38-02-A04 sc06 Full scDb-i/33_03_G02 scDb-o) (bispecific antibody)
chain: DIQMTQSPSSLSASVGDRVTITCQASQSINDYLAWYQQKPGKAPKLLIYKASTLASGVPSRFSGSGSGTDFTLTISSLQPEDFATYYCQQGYIITDIDNVFGTGTKVTVLGGGGGSQVQLQESGPGLVKPSETLSLTCKASGFSFSNSYWICWVRQPPGKGLEWIGCTFVGSSDSTYYANWAKGRVTISKDSSKNQVSLKLSSVTAADTAVYFCARHPSDAVYGYANNLWGQGTLVTVSSGGGGSGGGGSGGGGSGGGGSLQMTQSPSSLSASVGDRVTITCQASQSINNVLAWYQQKPGKPPKLLIYRASTLASGVPSRFSGSGSGTDFTLTISSLQPEDFATYYCQSSYGNYGDFGTGTKVTVLGGGGGSQVQLQESGPGLVKPSETLSLTCKVSGFSFSSGYDMCWIRQPPGKGLEWIGCVVAGSVDITYYASWAKGRVTISVDSSKNQFSLKLSSVTAADTAVYYCARKDAYSDAFNLWGQGTLVTVSS
notes: scDb; also called PR01124
In the case of B2, in test [1], the Kd is 11 nM, the koff was 0.0022 s⁻¹ and the kon was 200000 M⁻¹ s⁻¹. In [2], this molecule showed a Kd of 0.59 nM, an off-rate (koff) of 0.00033 s⁻¹ and a kon of 560000 M⁻¹ s⁻¹. Further, in test [3], the Kd was ≤ 0.015 nM, the koff was < 1e-05 s⁻¹ and the association rate constant (kon) was determined as 680000 M⁻¹ s⁻¹. In test [4], this molecule showed a Kd of 0.067 nM, a koff of 0.0002 s⁻¹ and an on-rate constant (kon) of 3.1e+06 M⁻¹ s⁻¹. In test [15], the “fold improvement of affinity against PRO885” value is > 200 fold. Further, in test [5], the “EC50 NFkB-luciferase, CHO-PDL1 cells” value was 0.00368 µg/mL and the “Top of curve fit, NFkB-luciferase, CHO-PDL1 cells” value was 229. Further, in test [11], the “max. activation, HCC827 +IFNg” value is 188%; the “max. activation, HCC827 -IFNg” value stood at 113%; the “max. activation, NF-kB reporter gene, CHO-PD-L1” value was found to be 229%; the “rel. IC50 (urelumab/test), HCC827 +IFNg” value was found to be 22.4 ratio. For the same molecule, in test [11], the “rel. IC50 (urelumab/test), HCC827 -IFNg” value was determined as 19.9 ratio and the “rel. IC50 (urelumab/test), NF-kB reporter gene, CHO-PD-L1” value stood at 23.5 ratio. Further, in test [12], the “EC50 NFkB-luciferase, HCC827 with IFNy” value came to 0.00483 µg/mL and the “Top of curve fit, NFkB-luciferase, HCC827 with IFNy” value was 188. Also, in test [14], the “EC50 NFkB-luciferase, HCC827 without IFNy” value was 0.00562 µg/mL and the “Top of curve fit, NFkB-luciferase, HCC827 without IFNy” value came out at 113.

B3: PRO997 (37-20-B03 CDR, scFv) (scFv)
scFv: DIQMTQSPSSLSASVGDRVTITCQASQSIGTYLAWYQQKPGKAPKLLIYRAFILASGVPSRFSGSGSGTDFTLTISSLQPEDFATYYCQSNFYSDSTTIGPNAFGTGTKVTVLGGGGGSGGGGSGGGGSGGGGSQVQLQESGPGLVKPSETLSLTCKVSGFSFNSDYWIYWIRQPPGKGLEWIGSIYGGSSGNTQYASWAQGRVTISVDSSKNQFSLKLSSVTAADTAVYYCARGYVDYGGATDLWGQGTLVTVSS
notes: also called anti-PDL1 scFv PRO997
With B3, in test [16], the Kd was < 0.00167 nM, the koff was < 1e-05 s⁻¹ and the kon came out at 6e+06 M⁻¹ s⁻¹. In [4], the Kd was ≤ 0.0017 nM, the koff is < 1e-05 s⁻¹ and the kon came out at 5.9e+06 M⁻¹ s⁻¹. Moreover, the “EC50 of IL-2 secretion, SEA stimulated PBMC, 96 h” value in test [17] was determined as 0.0409 µg/mL.
